In patent US20130224854A1 (NIPPON KAYAKU, published 2013):

Target: T1, single-chain type IV collagen alpha1 polypeptide (human) (human, UniProt P02462 173-1669, lower proportion of hydroxylated proline and hydroxylated lysine residues than type IV collagen; carries a sugar chain recognized by ABA lectin (positions not given))
T1 construct: mature; Secreted by human cancer cells (HLF, UO31, Lu65A); also called single-chain type IV collagen polypeptide; single-chain COL4
Test: competition ELISA at equilibrium in solution (method of Djavadi-Ohaniance), free antibody measured on immobilized antigen
Experimental: The dissociation constant of the purified monoclonal antibody NK46141 was determined by ELISA with reference to the method of Djavadi-Ohaniance L. et al. [Djavadi-Ohaniance L., et al., (1996) In Antibody Engineering (Eds.: McCafferty J., et al.), Chapter 4, pp. 77-97., IRL Press, Oxford.].
In brief, Immunoplate (Nunc; manufactured by Thermo Fisher Scientific Inc.) with the single-chain type IV collagen al polypeptide (antigen) immobilized thereon in advance was prepared. Meanwhile, JK132 and NK46141 having a constant concentration (0.10 μg/ml) were each incubated with varying concentrations of the antigen for a sufficient time until reaching equilibrium. This incubation solution was added to the ELISA wells to determine the amount of free antibodies. Since the antigen-antibody reaction follows the law of mass action, measured values were applied to formula 1 below. X and Y in formula 2 below were determined, and a graph was drawn to determine the dissociation constant from the slope (1/Kd).

T1 sequence (P02462 173-1669): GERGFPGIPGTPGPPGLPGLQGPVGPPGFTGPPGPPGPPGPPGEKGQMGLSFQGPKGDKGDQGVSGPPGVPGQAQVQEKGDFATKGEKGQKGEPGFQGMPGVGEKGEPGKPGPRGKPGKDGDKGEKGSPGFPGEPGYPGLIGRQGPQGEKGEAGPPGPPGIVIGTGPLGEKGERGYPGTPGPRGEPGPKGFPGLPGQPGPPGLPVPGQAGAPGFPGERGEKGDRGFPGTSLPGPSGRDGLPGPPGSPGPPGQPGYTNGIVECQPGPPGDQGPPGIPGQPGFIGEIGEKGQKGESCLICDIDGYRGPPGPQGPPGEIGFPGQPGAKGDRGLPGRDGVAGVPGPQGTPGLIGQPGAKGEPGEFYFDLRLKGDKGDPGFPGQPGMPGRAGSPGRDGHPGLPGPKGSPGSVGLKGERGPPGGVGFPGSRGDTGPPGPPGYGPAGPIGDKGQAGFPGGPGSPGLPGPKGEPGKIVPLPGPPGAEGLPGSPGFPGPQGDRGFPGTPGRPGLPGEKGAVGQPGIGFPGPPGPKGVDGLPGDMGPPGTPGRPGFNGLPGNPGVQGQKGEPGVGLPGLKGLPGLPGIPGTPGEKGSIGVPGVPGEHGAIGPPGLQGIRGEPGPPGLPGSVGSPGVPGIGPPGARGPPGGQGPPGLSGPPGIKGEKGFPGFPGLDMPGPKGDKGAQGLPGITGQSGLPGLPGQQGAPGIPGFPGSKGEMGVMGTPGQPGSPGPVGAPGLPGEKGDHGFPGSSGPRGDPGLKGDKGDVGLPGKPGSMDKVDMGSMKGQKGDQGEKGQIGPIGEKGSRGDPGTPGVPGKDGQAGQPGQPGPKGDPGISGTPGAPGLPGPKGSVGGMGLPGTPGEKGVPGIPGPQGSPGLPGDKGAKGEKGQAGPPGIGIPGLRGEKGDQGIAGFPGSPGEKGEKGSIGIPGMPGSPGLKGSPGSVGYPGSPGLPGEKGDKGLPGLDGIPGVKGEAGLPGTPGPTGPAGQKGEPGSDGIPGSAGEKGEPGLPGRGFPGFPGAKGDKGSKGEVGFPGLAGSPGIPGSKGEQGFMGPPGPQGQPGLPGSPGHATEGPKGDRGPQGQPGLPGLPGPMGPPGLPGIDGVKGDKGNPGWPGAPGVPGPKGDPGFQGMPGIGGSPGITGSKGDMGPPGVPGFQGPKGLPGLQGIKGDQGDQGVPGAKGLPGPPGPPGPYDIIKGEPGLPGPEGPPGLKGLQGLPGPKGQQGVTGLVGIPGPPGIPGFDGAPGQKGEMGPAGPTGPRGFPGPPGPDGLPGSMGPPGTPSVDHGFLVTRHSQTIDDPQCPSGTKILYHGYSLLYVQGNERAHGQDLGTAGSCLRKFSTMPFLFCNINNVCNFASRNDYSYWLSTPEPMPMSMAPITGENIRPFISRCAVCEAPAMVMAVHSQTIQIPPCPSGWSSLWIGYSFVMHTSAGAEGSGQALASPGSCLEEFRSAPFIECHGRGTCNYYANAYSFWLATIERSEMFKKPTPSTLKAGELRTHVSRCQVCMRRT

Kd: 34 nM
B1: monoclonal antibody NK46141 (antibody, V domains shown)
VH: EVQLVESGGGLVKPGGSLKLSCAASGFTFTDYYMYWVRQTPEKRLEWVATISEGGSYTYYPDSVKGRFTISRDNAKNNLYLQMSSLKSEDTAMYYCASPYYGDGGFAYWGQGTLVTVSA
VL: DVLMTQTPLSLPVSLGDQASISCRSSQSIVHSDGNTYLEWYLQKPGQSPRLLIYKVSNRFSGVPDRFSGSGSGTDFTLKISRVEAEDLGVYYCFQGSHVPPTFGGGTKLEIKR
notes: also called anti-single-chain type IV collagen polypeptide antibody; Anti NK-Antigen monoclonal antibody #141
